Reference: publication PMC3257281

What was measured:
[1] = biological target: rabbit intestinal mucin (rabbit); assay: ELISA
[2] = biological target: rabbit intestinal mucin (rabbit); assay: binding to mucin-coupled Sepharose resin, Scatchard plot; rabbit mucin coupled to NHS-activated sepharose; different amounts of GbpA protein added to 400 µl resin, 2 h, room temperature; unbound protein measured after centrifugation; Kd from bound vs. bound/free
[3] = biological target: rabbit intestinal mucin (rabbit)
[4] = biological target: rabbit intestinal mucin (rabbit); assay: binding to mucin-coupled Sepharose resin, Scatchard plot

Row | Substance | Kd [1] [µM] | Kd [2] [µM] | inhibition of binding of biotinylated wild type V. cholerae N16961 to mucin-coated wells pre-treated with increasing concentrations of the protein; value at saturation [3] [%] | Kd [4] [µM]
1 | GbpAD1, GbpA domain 1 (residues 24-203) (from UniProt Q9KLD5 24-203) (domain or fragment) | 8.7 | – | – | –
2 | GbpA_(D1–3), GbpA domains 1 to 3 (residues 24-414) (from UniProt Q9KLD5 24-414) (domain or fragment) | 13.2 | 12.5 | – | –
3 | GbpAfl, mature full-length GlcNAc binding protein A (residues 24-485) (from UniProt Q9KLD5 24-485) (natural protein) | 7.8 | – | 83 | 9.4
4 | GbpAD3, GbpA domain 3 (domain or fragment) | 76.4 | – | – | –
5 | GbpA(Y61A), full length GbpA with tyrosine 61 changed to alanine (from UniProt Q9KLD5 24-485) (natural protein) | 14.7 | 14.1 | 83 | –
